Positions count from the first letter of the chain named.
B1: 237 (protein)
chain: MTTRTRILTAFLSLLAANACAADAAPAAPHTVVLRAARMFDGASGKLVDHPQLTIVGNKIVRIAQGDKAEVPAGAEVVDLGDATLLPGFIDAHVHLSGQSSDNWYGDFFDNMMRFPAEQALYGAYYARITLEAGFTSVRDVGSTDWVALGLRNAIDAGKVPGPRMLVSNYAVGSTGGHADQDPIPPHKLPLAGPLQGVCNGPEECRAAVRYQIKYGANVIKFMPSGGVLSLSDPVDAPELSQDEMNAVIGESHAWGRKVAAHAHGDKAAKMAVAAGVDSIEHGHFIEDDTLRAMKAKNVYLVPTISAIAHVEEKIGTFPPVIAEKGRAAAAHLRQTFRHAVQIGVPIALGTDAGVGAHGSNAREFRYMVENGLTPAQALLAGTANAARLLGTFDRVGTLEAGKLADVVAVPGNPIADITVTERPLFVMKDGVVVRRDAVR
modifications: exemplary polypeptide
B2: 259 (protein)
chain: B1 chain with H284S, H310D, E313A
modifications: exemplary polypeptide
B3: 239 (protein)
chain: B1 chain with H284S, H310D
modifications: exemplary polypeptide
B4: 247 (protein)
chain: B1 chain with H284S, H339S
modifications: exemplary polypeptide
B5: 281 (protein)
chain: B1 chain with L231F, H284S
modifications: exemplary polypeptide
B6: 243 (protein)
chain: B1 chain with H284S, H332S
modifications: exemplary polypeptide
B7: 244 (protein)
chain: B1 chain with H284S, H339E
modifications: exemplary polypeptide
B8: 260 (protein)
chain: B1 chain with H284S, H310E, E313A
modifications: exemplary polypeptide
B9: 272 (protein)
chain: B1 chain with Q119E, H284S
modifications: exemplary polypeptide
B10: 242 (protein)
chain: B1 chain with H284S, H332R
modifications: exemplary polypeptide
B11: 238 (protein)
chain: B1 chain with H284T
modifications: exemplary polypeptide
B12: 241 (protein)
chain: B1 chain with H284S, H332E
modifications: exemplary polypeptide
B13: 248 (protein)
chain: B1 chain with H284S, A353S
modifications: exemplary polypeptide
B14: 262 (protein)
chain: B1 chain with G98V, H284S
modifications: exemplary polypeptide
B15: 275 (protein)
chain: B1 chain with Q119M, H284S
modifications: exemplary polypeptide
B16: 280 (protein)
chain: B1 chain with V198T, H284S
modifications: exemplary polypeptide
B17: 268 (protein)
chain: B1 chain with M112F, H284S
modifications: exemplary polypeptide
B18: 245 (protein)
chain: B1 chain with H284S, H339K
modifications: exemplary polypeptide
B19: 253 (protein)
chain: B1 chain with H284S, N361Q
modifications: exemplary polypeptide
B20: 273 (protein)
chain: B1 chain with Q119H, H284S
modifications: exemplary polypeptide
B21: 240 (protein)
chain: B1 chain with H284S, H310E
modifications: exemplary polypeptide
B22: 256 (protein)
chain: B1 chain with H187N, K188R, H284S
modifications: exemplary polypeptide
B23: 261 (protein)
chain: B1 chain with G98S, H284S
modifications: exemplary polypeptide
B24: 274 (protein)
chain: B1 chain with Q119K, H284S
modifications: exemplary polypeptide
B25: 246 (protein)
chain: B1 chain with H284S, H339N
modifications: exemplary polypeptide

assay: Enzymatic activity comparison: activity remaining after 65° C. for 10 min at pH 6.0, relative to SEQ ID NO: 1; assay type: physicochemical; conditions: not given
Procedure: To compare the temperature behavior and thermostability of selected enzymes to one another, enzyme was incubated at 65° C. for 10 min at pH 6.0. The enzymatic activity remaining after incubation was compared to the remaining activity of the enzyme of SEQ ID NO: 1 after incubation, the latter being set to 100%, see Table 16.

Row | Molecule | Enzymatic activity remaining after incubation, compared to SEQ ID NO: 1 (set to 100%)
1 | B1 | 14%
2 | B2 | 41%
3 | B3 | 30%
4 | B4 | 53%
5 | B5 | 13%
6 | B6 | 41%
7 | B7 | 33%
8 | B8 | 27%
9 | B9 | 41%
10 | B10 | 11%
11 | B11 | 24%
12 | B12 | 73%
13 | B13 | 38%
14 | B14 | 40%
15 | B15 | 25%
16 | B16 | 31%
17 | B17 | 28%
18 | B18 | 37%
19 | B19 | 22%
20 | B20 | 34%
21 | B21 | 44%
22 | B22 | 36%
23 | B23 | 60%
24 | B24 | 32%
25 | B25 | 27%

assay: OTA detoxification activity assay (specific activity, fluorescence reduction ex/em 390/450 nm); assay type: biochemical; conditions: pH 6.0; SEQ ID NO: 1 = 100%
In short: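 Recombinant enzyme preparation with 200 ng/mL OTA in 100 mM sodium phosphate, at pH 6.0 and pH 7.5, 37° C. Degradation followed as the fall in fluorescence at ex/em 390/450 nm. Specific activity taken from the initial linear slope; one unit degrades 1 μmol OTA per min at a starting OTA of […].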

Row | Molecule | Specific OTA detoxification activities in % compared to the enzyme of SEQ ID NO: 1, pH 6.0
26 | B1 | 49%
27 | B2 | 56%
28 | B3 | 73%
29 | B4 | 80%
30 | B5 | 90%
31 | B6 | 37%
32 | B7 | 127%
33 | B8 | 83%
34 | B9 | 121%
35 | B10 | 41%
36 | B11 | 151%
37 | B12 | 18%
38 | B13 | 131%
39 | B14 | 116%
40 | B15 | 71%
41 | B16 | 70%
42 | B17 | 25%
43 | B18 | 62%
44 | B19 | 93%
45 | B20 | 134%
46 | B21 | 86%
47 | B22 | 116%
48 | B23 | 78%
49 | B24 | 100%
50 | B25 | 113%

same assay, conditions: pH 7.5; SEQ ID NO: 1 = 100%

Row | Molecule | Specific OTA detoxification activities in % compared to the enzyme of SEQ ID NO: 1, pH 7.5
51 | B1 | 26%
52 | B2 | 54%
53 | B3 | 76%
54 | B4 | 100%
55 | B5 | 50%
56 | B6 | 77%
57 | B7 | 93%
58 | B8 | 81%
59 | B9 | 86%
60 | B10 | 54%
61 | B11 | 97%
62 | B12 | 55%
63 | B13 | 91%
64 | B14 | 106%
65 | B15 | 85%
66 | B16 | 50%
67 | B17 | 39%
68 | B18 | 59%
69 | B19 | 87%
70 | B20 | 76%
71 | B21 | 101%
72 | B22 | 101%
73 | B23 | 95%
74 | B24 | 100%
75 | B25 | 89%
